Several values for one entry are separate records, joined by “and”; a condition that tells them apart may be missing. Equal values may be shown once. One block for each binder: values may come before it.
Key:
[1] = biological target: T1, IGF1 (UniProt P05019 49-118, limits assumed); assay: cell-based or functional assay
[2] = biological target: T2, IGF2 (UniProt P01344 25-91, limits assumed); assay: cell-based or functional assay
[3] = biological target: T1, IGF1; assay: cell-based or functional assay; remark: listed apart in the source
[4] = biological target: T2, IGF2; assay: cell-based or functional assay; remark: listed apart in the source
[5] = biological target: hIGF1 (human, UniProt P05019 49-118); assay: cell-based or functional assay
[6] = biological target: IGF2 (UniProt P01344 25-91); assay: cell-based or functional assay
[7] = biological target: T3, PlGF (UniProt P49763-2 21-149, limits assumed); assay: direct bind ELISA, reference antibody
T3 construct: bought antigen coated on the ELISA plate; also called Placental GF
T3 sequence (looked up): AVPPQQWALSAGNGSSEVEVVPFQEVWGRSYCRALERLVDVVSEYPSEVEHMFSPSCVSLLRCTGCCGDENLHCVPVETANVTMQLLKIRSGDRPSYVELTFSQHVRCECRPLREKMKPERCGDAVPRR

[8] = biological target: T4, HGF-His tag (UniProt P14210 32-728); assay: direct bind ELISA (ref Ab)
T4 construct: Bought antigen coated on the ELISA plate; not shown: His tag

[9] = biological target: biotinylated ErbB3 (UniProt P21860 20-643, limits assumed, biotinylated); assay: capture ELISA, antibody captured by anti-human IgG Fc, biotinylated ErbB3
[10] = biological target: T5, ErbB3 (ErbB3 ECD/FC Chimera-His tag, R&D 348-RB-050) (UniProt P21860 20-643, limits assumed); assay: direct bind ELISA, coated antigen; parent reference antibody
T5 construct: extracellular domain; Bought antigen coated on the ELISA plate

[11] = biological target: T6, insulin-like growth factor receptor (IGF1R) (human, UniProt P08069 31-1367); assay: cell-based or functional assay
[12] = biological target: T6, insulin-like growth factor receptor …; assay: cell-based or functional assay; remark: listed apart in the source
[13] = biological target: T6, insulin-like growth factor receptor …; assay: cell-based or functional assay; remark: listed apart in the source
[14] = biological target: T7, VEGF (VEGF 1-165 aa, R&D Systems 293-VE-010) (UniProt P15692 27-191); assay: Direct bind ELISA, VEGF coated on plate; VEGF domain N-term., HC short/LC long
T7 construct: bought reagent; also called vascular endothelial growth factor

[15] = biological target: recombinant human VEGF165 (human, UniProt P15692-4 27-191); assay: cell-based or functional assay
Chain of recombinant human VEGF165 (P15692 other isoform, or with tags, fused parts or gaps limits assumed): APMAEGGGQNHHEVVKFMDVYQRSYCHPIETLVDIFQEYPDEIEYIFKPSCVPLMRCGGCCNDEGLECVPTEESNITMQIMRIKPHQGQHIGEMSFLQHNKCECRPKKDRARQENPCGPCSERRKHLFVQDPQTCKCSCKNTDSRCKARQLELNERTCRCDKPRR

T4 sequence (P14210 32-728 limits assumed): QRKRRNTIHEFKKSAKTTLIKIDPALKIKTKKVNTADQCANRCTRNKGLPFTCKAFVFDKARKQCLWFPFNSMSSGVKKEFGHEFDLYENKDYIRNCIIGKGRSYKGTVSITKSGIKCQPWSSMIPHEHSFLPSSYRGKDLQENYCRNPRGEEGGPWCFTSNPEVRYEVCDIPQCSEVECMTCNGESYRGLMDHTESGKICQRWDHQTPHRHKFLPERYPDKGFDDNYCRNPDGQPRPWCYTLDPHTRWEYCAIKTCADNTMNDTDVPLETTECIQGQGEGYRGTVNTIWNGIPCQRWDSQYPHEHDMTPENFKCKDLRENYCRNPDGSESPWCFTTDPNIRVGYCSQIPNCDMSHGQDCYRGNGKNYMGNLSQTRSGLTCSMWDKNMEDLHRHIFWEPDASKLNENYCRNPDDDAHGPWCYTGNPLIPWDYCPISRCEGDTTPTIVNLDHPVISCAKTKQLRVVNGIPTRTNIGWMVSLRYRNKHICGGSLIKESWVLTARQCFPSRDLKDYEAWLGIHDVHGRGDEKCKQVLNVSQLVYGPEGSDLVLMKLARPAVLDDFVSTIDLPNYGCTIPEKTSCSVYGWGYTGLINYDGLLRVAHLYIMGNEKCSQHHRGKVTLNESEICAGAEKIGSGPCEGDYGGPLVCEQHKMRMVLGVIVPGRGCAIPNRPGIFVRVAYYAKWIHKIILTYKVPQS
T7 sequence (P15692 other isoform, or with tags, fused parts or gaps limits assumed): as the sequence (P15692 other isoform, or with tags, fused parts or gaps limits assumed) above

B1: AB010 (antibody, human IgG1, lambda, V domains shown)
VH: QVQLVQSGAEVKKPGASVKVSCKASGYTFTSYDINWVRQATGQGLEWMGWMNPNSGNTGYAQKFQGRVTMTRNTSISTAYMELSSLRSEDTAVYYCARDPYYYYYGMDVWGQGTTVTVSS
VL: QSVLTQPPSVSAAPGQKVTISCSGSSSNIENNHVSWYQQLPGTAPKLLIYDNNKRPSGIPDRFSGSKSGTSATLGITGLQTGDEADYYCETWDTSLSAGRVFGGGTKLTVLG
H929, IGF1R line proliferation inhibition IC50 [1]: 1.6 nM | H929, IGF1R line proliferation inhibition, max [1]: 70 % max | H929, IGF1R line proliferation inhibition IC50 [2]: 1.6 nM | H929, IGF1R line proliferation inhibition, max [2]: 70 % max | A431, EGFR line proliferation inhibition IC50 [3]: > 67 nM | A431, EGFR line proliferation inhibition, max [3]: 10 % max | A431, EGFR line proliferation inhibition IC50 [4]: > 67 nM | A431, EGFR line proliferation inhibition, max [4]: 10 % max

B2: AB010 (antibody, human IgG1, lambda, V domains shown)
VH: B1 VH
VL: B1 VL
pIGF1R Cellular Assay (hIGF1 Neutralization IC50 nM) [5]: 1.7 nM | pIGFR1 Cellular Assay (IGF2 induced IC50 nM) [6]: 0.3 nM

B3: AB074 (antibody, human IgG1, kappa, V domains shown)
VH: QVQLKQSGPGLVQPSQSLSITCTVSGFSLTTYGIHWVRQSPGKGLEWLGVMWSGGDTDYDAAFISRLSISKDNSKSQVFFKMNSLQANDTGIYYCARYRFYGMDYWGQGTSVTVSS
VL: AIQMTQSSSSFSVSLGDRVTITCKASEDIYNRFAWYQQKPGNAPRLLISGAASLEAGVPSRFSGSGSGQDYTLSITSLQTEDVATYYCQQYWSTPWTFGGGTKLEIKR
EC50 [7]: 0.49 nM

B4: AB012 (antibody, human IgG1, kappa, V domains shown)
VH: QVQLVESGGGLVKPGGSLRLSCAASGFTFSDYYMSWIRQAPGKGLEWVSYISSSGSTIYYADSVKGRFTISRDNAKNSLYLQMNSLRAEDTAVYYCARDEYNSGWYVLFDYWGQGTLVTVSS
VL: DIQMTQSPSSVSASVGDRVTITCRASQGISSWLAWYQQKPGKAPNLLIYEASSLQSGVPSRFGGSGSGTDFTLTISSLQPEDFATYYCQQANGFPWTFGQGTKVEIKR
notes: Vectors V1/V2
EC50 [8]: 0.15 nM and 0.17 nM and 0.16 nM

B6: AB062 (antibody, human IgG1, kappa, V domains shown)
VH: QVQLQQWGAGLLKPSETLSLTCAVYGGSFSGYYWSWIRQPPGKGLEWIGEINHSGSTNYNPSLKSRVTISVETSKNQFSLKLSSVTAADTAVYYCARDKWTWYFDLWGRGTLVTVSS
VL: not shown
notes: also called AB062VH
EC50 [10]: 0.75 nM and 0.97 nM and 1.6 nM

B8: AB079 (antibody, human IgG1, kappa, V domains shown)
VH: EVQLVQSGAEVKKPGESLKISCKGSGYSFTTYWMHWVRQMPGKGLEWMGEINPTNGHTNYNPSFQGQVTISADKSISTAYLQWSSLKASDTAMYYCARNYVGSIFDYWGQGTLVTVSS
VL: DIQMTQSPSSLSASVGDRVTITCKASENVVSYVSWYQQKPGKAPKLLIYGASNRNTGVPSRFSGSGSGTDFTLTISSLQPEDFATYYCGQSYNYPYTFGQGTKLEIKR
notes: Vectors V1/V2
EC50 [8]: 0.48 nM and 0.39 nM and 0.4 nM and 0.41 nM

B11: DVD508 (bispecific antibody, human IgG1, kappa)
heavy: not shown
light: DIQMTQSPSSLSASVGDRVTITCRASQDVSTAVAWYQQKPGKAPKLLIYSASFLYSGVPSRFSGSGSGTDFTLTISSLQPEDFATYYCQQSYTTPPTFGQGTKVEIKRTVAAPSVFIFPPDIQMTQSSSYLSVSLGGRVTITCKASDHINNWLAWYQQKPGNAPRLLISGATSLETGVPSRFSGSGSGKDYTLSITSLQTEDVATYYCQQYWSIPLTFGAGTKLELKRTVAAPSVFIFPPSDEQLKSGTASVVCLLNNFYPREAKVQWKVDNALQSGNSQESVTEQDSKDSTYSLSSTLTLSKADYEKHKVYACEVTHQGLSSPVTKSFNRGEC
notes: DVD-Ig; N-term; AB070 (VEGF), C-term; AB072 (DLL4); HC linker short, LC linker long; also called DVD-Ig DVD508; DVD508H/DVD508L
EC50 [14]: 7.88 nM

B13: AB067 (antibody, human IgG1, lambda, L234A L235A, V domains shown)
VH: EVQLLESGGGLVQPGGSLRLSCAASGFTFSHYVMAWVRQAPGKGLEWVSSISSSGGWTLYADSVKGRFTISRDNSKNTLYLQMNSLRAEDTAVYYCTRGLKMATIFDYWGQGTLVTVSS
VL: QSALTQPASVSGSPGQSITISCTGTSSDVGSYNVVSWYQQHPGKAPKLIIYEVSQRPSGVSNRFSGSKSGNTASLTISGLQTEDEADYYCCSYAGSSIFVIFGGGTKVTVLG
notes: also called AB067VH
EC50 [10]: 1.78 nM and 2.2 nM and 1.12 nM

B15: DVD041 (bispecific antibody, human IgG1, lambda)
heavy: not shown
light: DIQMTQSPSSLSASVGDRVTITCSASQDISNYLNWYQQKPGKAPKVLIYFTSSLHSGVPSRFSGSGSGTDFTLTISSLQPEDFATYYCQQYSTVPWTFGQGTKVEIKRTVAAPQSVLTQPPSVSAAPGQKVTISCSGSSSNIENNHVSWYQQLPGTAPKLLIYDNNKRPSGIPDRFSGSKSGTSATLGITGLQTGDEADYYCETWDTSLSAGRVFGGGTKLTVLGQPKAAPSVTLFPPSSEELQANKATLVCLISDFYPGAVTVAWKADSSPVKAGVETTTPSKQSNNKYAASSYLSLTPEQWKSHRSYSCQVTHEGSTVEKTVAPTECS
C-terminal VD pIGF1R Cellular Assay (hIGF1 Neutralization IC50 nM) [5]: 16.8 nM | C-terminal VD pIGFR1 Cellular Assay (IGF2 induced IC50 nM) [6]: 1.5 nM

Now from value to binder:

EC50 [9]: 0.26 nM
B5: AB062 (antibody, human IgG1, kappa, V domains shown)
VH: B6 VH
VL: not shown

H929, IGF1R line proliferation inhibition IC50 [11]: 0.1 nM | H929, IGF1R line proliferation inhibition, max [11]: 65 % max | A431, EGFR line proliferation inhibition IC50 [12]: > 67 nM | A431, EGFR line proliferation inhibition, max [12]: 5 % max | GEO, EGFR/IGF1R line proliferation inhibition IC50 [13]: > 67 nM | GEO, EGFR/IGF1R line proliferation inhibition, max [13]: 15 % max
B7: AB011 (antibody, human IgG1, kappa, V domains shown)
VH: EVQLLESGGGLVQPGGSLRLSCTASGFTFSSYAMNWVRQAPGKGLEWVSAISGSGGTTFYADSVKGRFTISRDNSRTTLYLQMNSLRAEDTAVYYCAKDLGWSDSYYYYYGMDVWGQGTTVTVSS
VL: DIQMTQFPSSLSASVGDRVTITCRASQGIRNDLGWYQQKPGKAPKRLIYAASRLHRGVPSRFSGSGSGTEFTLTISSLQPEDFATYYCLQHNSYPCSFGQGTKLEIKR

EC50 [9]: 0.67 nM
B9: AB063 (antibody, human IgG1, kappa, V domains shown)
VH: EVQLVESGGGLVQPGGSLRLSCAASGFTFSIYSMNWVRQAPGKGLEWVSYISSSSSTIYYADSVKGRFTISRDNAKNSLYLQMNSLRDEDTAVYYCARDRGDFDAFDIWGQGTMVTVSS
VL: DIQMTQSPSSLSASVGDRVTITCQASQDITNYLNWYQQKPGKAPKLLIYDASNLETGVPSRFSGSGSGTDFTFTISSLQPEDIATYNCQQCENFPITFGQGTRLEIKR

EC50 [10]: 0.87 nM and 0.92 nM and 1.1 nM
B10: AB063 (antibody, human IgG1, kappa, V domains shown)
VH: B9 VH
VL: B9 VL
notes: also called AB063VH

EC50 [7]: 0.13 nM and 0.14 nM and 0.17 nM
B12: AB047 (antibody, human IgG1, kappa, V domains shown)
VH: QVQLQQSGAELVKPGASVKISCKASGYTFTDYYINWVKLAPGQGLEWIGWIYPGSGNTKYNEKFKGKATLTIDTSSSTAYMQLSSLTSEDTAVYFCVRDSPFFDYWGQGTLLTVSS
VL: DIVLTQSPDSLAVSLGERVTMNCKSSQSLLNSGMRKSFLAWYQQKPGQSPKLLIYWASTRESGVPDRFTGSGSGTDFTLTISSVQAEDVAVYYCKQSYHLFTFGSGTKLEIKR

A431, EGFR line proliferation inhibition IC50 [15]: > 50 nM | A431, EGFR line proliferation inhibition, max [15]: 0% | A431, EGFR line proliferation inhibition IC50 [3]: > 50 nM | A431, EGFR line proliferation inhibition, max [3]: 0% | A431, EGFR line proliferation inhibition IC50 [4]: > 50 nM | A431, EGFR line proliferation inhibition, max [4]: 0%
B14: DVD041 (bispecific antibody, human IgG1, lambda)
heavy: not shown
light: B15 light

From US20100260668A1 (published 2010)
